Laboratory results published in patent publication US20190142971A1, “FORMULATION AND DELIVERY OF MODIFIED NUCLEOSIDE, NUCLEOTIDE, AND NUCLEIC ACID COMPOSITIONS” (ModernaTX, Inc., priority 2013, published 2019).

B1: G-CSF: modified mRNA encoding human G-CSF, SEQ ID NO: 4, Cap1, fully modified with 5-methylcytosine and pseudouridine; LNP-formulated in Examples 16-22 (nucleic acid)
chain: GGGAAAUAAGAGAGAAAAGAAGAGUAAGAAGAAAUAUAAGAGCCACCAUGGCCGGUCCCGCGACCCAAAGCCCCAUGAAACUUAUGGCCCUGCAGUUGCUGCUUUGGCACUCGGCCCUCUGGACAGUCCAAGAAGCGACUCCUCUCGGACCUGCCUCAUCGUUGCCGCAGUCAUUCCUUUUGAAGUGUCUGGAGCAGGUGCGAAAGAUUCAGGGCGAUGGAGCCGCACUCCAAGAGAAGCUCUGCGCGACAUACAAACUUUGCCAUCCCGAGGAGCUCGUACUGCUCGGGCACAGCUUGGGGAUUCCCUGGGCUCCUCUCUCGUCCUGUCCGUCGCAGGCUUUGCAGUUGGCAGGGUGCCUUUCCCAGCUCCACUCCGGUUUGUUCUUGUAUCAGGGACUGCUGCAAGCCCUUGAGGGAAUCUCGCCAGAAUUGGGCCCGACGCUGGACACGUUGCAGCUCGACGUGGCGGAUUUCGCAACAACCAUCUGGCAGCAGAUGGAGGAACUGGGGAUGGCACCCGCGCUGCAGCCCACGCAGGGGGCAAUGCCGGCCUUUGCGUCCGCGUUUCAGCGCAGGGCGGGUGGAGUCCUCGUAGCGAGCCACCUUCAAUCAUUUUUGGAAGUCUCGUACCGGGUGCUGAGACAUCUUGCGCAGCCGUGAAGCGCUGCCUUCUGCGGGGCUUGCCUUCUGGCCAUGCCCUUCUUCUCUCCCUUGCACCUGUACCUCUUGGUCUUUGAAUAAAGCCUGAGUAGGAAG
modifications: Cap1, 5-methylcytosine, pseudouridine
B2: EPO: modified mRNA encoding human erythropoietin, SEQ ID NO: 7, Cap1, fully modified with 5-methylcytosine and pseudouridine; LNP NPA-060-1 in Examples 17-22 (nucleic acid)
chain: GGGAAAUAAGAGAGAAAAGAAGAGUAAGAAGAAAUAUAAGAGCCACCAUGGGAGUGCACGAGUGUCCCGCGUGGUUGUGGUUGCUGCUGUCGCUCUUGAGCCUCCCACUGGGACUGCCUGUGCUGGGGGCACCACCCAGAUUGAUCUGCGACUCACGGGUACUUGAGAGGUACCUUCUUGAAGCCAAAGAAGCCGAAAACAUCACAACCGGAUGCGCCGAGCACUGCUCCCUCAAUGAGAACAUUACUGUACCGGAUACAAAGGUCAAUUUCUAUGCAUGGAAGAGAAUGGAAGUAGGACAGCAGGCCGUCGAAGUGUGGCAGGGGCUCGCGCUUUUGUCGGAGGCGGUGUUGCGGGGUCAGGCCCUCCUCGUCAACUCAUCACAGCCGUGGGAGCCCCUCCAACUUCAUGUCGAUAAAGCGGUGUCGGGGCUCCGCAGCUUGACGACGUUGCUUCGGGCUCUGGGCGCACAAAAGGAGGCUAUUUCGCCGCCUGACGCGGCCUCCGCGGCACCCCUCCGAACGAUCACCGCGGACACGUUUAGGAAGCUUUUUAGAGUGUACAGCAAUUUCCUCCGCGGAAAGCUGAAAUUGUAUACUGGUGAAGCGUGUAGGACAGGGGAUCGCUGAUAAGCUGCCUUCUGCGGGGCUUGCCUUCUGGCCAUGCCCUUCUUCUCUCCCUUGCACCUGUACCUCUUGGUCUUUGAAUAAAGCCUGAGUAGGAAG
modifications: Cap1, 5-methylcytosine, pseudouridine

How the values were obtained:
C57/BL6 mice = assay: Example 32B: human G-CSF lipoplex IM, SC, IV in mice, serum G-CSF ELISA at 6 hours (Table 56); assay type: in vivo; details: serum 6 hours after administration
Protocol: 6 hours after administration of a formulation, serum was collected from each mouse to measure the amount of human G-CSF protein in the mouse serum by human G-CSF ELISA and the results are shown in Table 56.

human PBMC = assay: Example 45: PBMC transfection, IFN-alpha ELISA (Table 72); assay type: cell-based
Protocol: The plates were then incubated at 37 C.
Each condition was done in duplicate.
Shown in Tables 71 and 72 are the average from 2 separate PBMC donors of the G-CSF and IFN-alpha production over time as measured by specific ELISA.

C57BL/6 [1] = assay: Example 115: human EPO mRNA electroporation multi-dose, serum EPO (Table 185); assay type: in vivo, mice; details: human EPO mRNA in PBS, IM 0.2 mg/kg per dose with EP
Protocol: (§1) Serum was collected from the mice at 24 hours post the first, second, third and fourth doses.

mice = assay: Example 48: split dose study EPO mmRNA IM in mice, serum EPO, dose splitting factor (Table 79); assay type: in vivo
Protocol: The dosing vehicle (F. buffer) consisted of 150 mM NaCl, 2 mM CaCl2), 2 mM Natphosphate (1.4 mM monobasic sodium phosphate; 0.6 mM dibasic sodium phosphate), and 0.5 mM EDTA, pH 6.5. The pH was adjusted using sodium hydroxide and the final solution was filter sterilized.
Animals (n=5) were injected IM (intramuscular) for the single unit dose of 100 ug. For multi-dosing, two schedules were used, 3 doses of 100 ug and 6 doses of 100 ug. For the split dosing scheme, two schedules were used, 3 doses at 33.3 ug and 6 doses of 16.5 ug mmRNA. Control dosing involved use of buffer only at 6 doses. […] Blood and muscle tissue were evaluated 13 hrs post injection.
Human EPO protein was measured in mouse serum 13 h post I.M. single, multi- or split dosing of the EPO mmRNA in buffer. Seven groups of mice (n=5 mice per group) were treated and evaluated.
The splitting factor is defined as the product per unit drug divided by the single dose product per unit drug (PUD). For example for treatment group 2 the value 0.28 or product (EPO) per unit drug (mmRNA) is divided by the single dose product per unit drug of 0.14. The result is 2. Likewise, for treatment group 4, the value 1.1 or product (EPO) per unit drug (mmRNA) is divided by the single dose product per unit drug of 0.14. The result is 7.9. Consequently, the dose splitting factor (DSF) may be used as an indicator of the efficacy of a split dose regimen. For any single administration of a total daily dose, the DSF should be equal to 1. Therefore any DSF greater than this value in a split dose regimen is an indication of increased efficacy.

C57BL/6 [2] = assay: Example 114: mouse EPO mRNA electroporation multi-dose, serum EPO (Tables 183, 184); assay type: in vivo, mice; details: mouse EPO mRNA in PBS, IM 0.2 mg/kg per dose with EP
Protocol: as §1

[3] = serum 24 hours post fourth dose
[4] = serum 24 hours post second dose

| Molecule | Human G-CSF in Serum (C57/BL6 mice; I.M., 100 μg) | Human G-CSF in Serum (C57/BL6 mice; I.V., 100 μg (Luc-unsp 150 μg)) | Human G-CSF in Serum (C57/BL6 mice; S.C., 100 μg) | IFN-alpha / cytokine production (human PBMC) | First Dose EPO (C57BL/6 [1]; serum 24 hours post first dose) | Fourth Dose EPO (C57BL/6 [1]; [3]) | Second Dose EPO (C57BL/6 [1]; [4]) | Third Dose EPO (C57BL/6 [1]; serum 24 hours post third dose) | product (EPO) per unit drug (mmRNA) (mice; single dose) | dose splitting factor (DSF) (mice; treatment group 2) | product (EPO) per unit drug (mmRNA) (mice; treatment group 2) | dose splitting factor (DSF) (mice; treatment group 4) | product (EPO) per unit drug (mmRNA) (mice; treatment group 4) | First Dose EPO (C57BL/6 [2]; serum 24 hours post first dose) | Fourth Dose EPO (C57BL/6 [2]; [3]) | Second Dose EPO (C57BL/6 [2]; [4]) | Third Dose EPO (C57BL/6 [2]; serum 24 hours post third dose) |
| --- | --- | --- | --- | --- | --- | --- | --- | --- | --- | --- | --- | --- | --- | --- | --- | --- | --- |
| B1 | 85.6 pg/mL | 31.0 pg/mL | 3.9 pg/mL | induced IFN-alpha, TNF-alpha and IP10 | – | – | – | – | – | – | – | – | – | – | – | – | – |
| B2 | – | – | – | – | 9.5 pg/mL | 139.9 pg/mL | 27.9 pg/mL | 284.5 pg/mL | 0.14 | 2 | 0.28 | 7.9 | 1.1 | 151.9 pg/mL | 258.1 pg/mL | 357.8 pg/mL | 898.5 pg/mL |
